The source of these data is patent publication US20220033784A1 (priority 2020, published 2022).

The target of assay [1] is human high-affinity IL-2 receptor complex, IL-2 CD25/CD122/CD132 (α/β/γ), on cells (human) (UniProt P01589).
Assay [2] concerns the target human intermediate-affinity IL-2 receptor complex, IL-2 CD122/CD132 (β/γ), on cells (human) (UniProt P14784).
For assay [3], the target named is T1, mouse intermediate-affinity IL-2R (IL-2Rβ + IL-2Rγ) on murine splenocytes (CD8+ T cells and NK cells) (mouse) (UniProt P16297).
T1 sequence 1: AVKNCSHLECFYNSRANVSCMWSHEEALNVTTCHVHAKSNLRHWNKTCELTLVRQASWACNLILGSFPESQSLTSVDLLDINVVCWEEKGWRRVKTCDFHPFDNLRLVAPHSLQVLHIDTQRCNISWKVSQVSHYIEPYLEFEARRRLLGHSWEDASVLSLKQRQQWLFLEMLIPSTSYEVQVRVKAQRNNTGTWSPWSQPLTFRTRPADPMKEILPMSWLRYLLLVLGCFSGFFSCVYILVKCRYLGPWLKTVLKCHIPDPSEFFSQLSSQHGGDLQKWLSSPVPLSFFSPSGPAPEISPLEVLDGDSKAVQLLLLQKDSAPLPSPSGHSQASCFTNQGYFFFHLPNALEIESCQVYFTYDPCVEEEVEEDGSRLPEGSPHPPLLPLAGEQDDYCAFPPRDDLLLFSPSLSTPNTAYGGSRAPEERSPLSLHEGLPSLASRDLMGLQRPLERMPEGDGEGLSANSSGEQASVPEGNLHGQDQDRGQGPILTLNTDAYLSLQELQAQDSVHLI
T1 sequence 2: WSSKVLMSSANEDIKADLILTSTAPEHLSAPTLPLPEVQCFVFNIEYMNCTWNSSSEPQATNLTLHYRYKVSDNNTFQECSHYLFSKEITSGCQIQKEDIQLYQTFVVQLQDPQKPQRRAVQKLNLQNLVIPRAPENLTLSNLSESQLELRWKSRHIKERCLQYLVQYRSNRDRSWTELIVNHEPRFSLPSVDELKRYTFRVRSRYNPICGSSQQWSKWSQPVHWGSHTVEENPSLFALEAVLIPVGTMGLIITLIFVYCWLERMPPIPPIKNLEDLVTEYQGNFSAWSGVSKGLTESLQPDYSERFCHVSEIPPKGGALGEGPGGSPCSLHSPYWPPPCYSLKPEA

The target in assay [4] is T2, mouse high-affinity IL-2R (IL-2Rα/CD25 + IL-2Rβ + IL-2Rγ) on murine splenocytes (Treg cells, CD3+CD4+CD25+Foxp3+) (mouse) (UniProt P01590).
T2 sequence 1: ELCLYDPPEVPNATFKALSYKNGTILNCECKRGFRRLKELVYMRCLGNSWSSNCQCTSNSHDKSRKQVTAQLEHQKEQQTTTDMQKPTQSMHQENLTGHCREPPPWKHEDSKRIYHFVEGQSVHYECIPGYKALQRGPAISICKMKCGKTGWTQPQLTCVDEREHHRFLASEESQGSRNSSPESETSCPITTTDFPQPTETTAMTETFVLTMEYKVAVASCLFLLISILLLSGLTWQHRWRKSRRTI
T2 sequence 2: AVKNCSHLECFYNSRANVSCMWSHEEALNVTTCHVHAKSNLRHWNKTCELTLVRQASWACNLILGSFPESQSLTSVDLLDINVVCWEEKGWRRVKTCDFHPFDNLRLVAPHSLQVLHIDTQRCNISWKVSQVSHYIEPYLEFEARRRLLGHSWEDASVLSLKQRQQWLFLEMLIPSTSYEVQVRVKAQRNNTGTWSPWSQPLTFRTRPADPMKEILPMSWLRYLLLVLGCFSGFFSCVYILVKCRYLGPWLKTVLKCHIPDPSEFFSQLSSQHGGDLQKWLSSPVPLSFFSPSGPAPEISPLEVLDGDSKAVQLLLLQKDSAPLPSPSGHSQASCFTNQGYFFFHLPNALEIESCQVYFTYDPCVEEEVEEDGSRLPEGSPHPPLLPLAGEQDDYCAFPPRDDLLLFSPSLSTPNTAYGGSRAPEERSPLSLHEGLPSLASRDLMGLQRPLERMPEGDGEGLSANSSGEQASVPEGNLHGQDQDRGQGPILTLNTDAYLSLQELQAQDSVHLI
T2 sequence 3: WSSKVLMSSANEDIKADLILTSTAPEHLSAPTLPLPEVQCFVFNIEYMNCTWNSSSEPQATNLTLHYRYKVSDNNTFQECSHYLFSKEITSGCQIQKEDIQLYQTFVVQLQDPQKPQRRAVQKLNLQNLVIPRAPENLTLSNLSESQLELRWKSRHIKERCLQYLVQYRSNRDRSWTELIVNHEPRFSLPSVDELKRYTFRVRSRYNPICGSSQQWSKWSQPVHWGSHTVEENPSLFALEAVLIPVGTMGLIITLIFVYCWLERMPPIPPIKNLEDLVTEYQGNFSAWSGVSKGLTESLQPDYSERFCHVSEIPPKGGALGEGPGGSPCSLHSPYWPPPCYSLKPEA

In assay [5] the target is T1, mouse intermediate-affinity IL-2R (IL-2Rβ + IL-2Rγ) on murine splenocytes (CD8+ T cells and NK cells) (mouse). This is another data set of the same source.

On to “Fc-IL2-R38N:L40T-T41N:K43T (from UniProt P01857-1) (Fc fusion)”, for which the EC50 (read off the curve), pSTAT5 MFI in Treg cells of hPBMC in assay [1] came out at 20 nM. Besides, in assay [2], the EC50 (read off the curve), pSTAT5 MFI in NK cells of hPBMC was 6 nM.
In the case of “human IL-2 variant hIL-2v (F42A, Y45A, L72G), secreted by virus-infected HeLa cells (from UniProt P60568 21-153) (ligand)”, in assay [3], the EC50 (read off the curve), pSTAT5 MFI, murine splenocyte NK cells was 20 ng/mL. Further, in assay [4], the EC50 (read off the curve), pSTAT5 MFI, murine splenocyte Treg cells came out at 70 ng/mL. For the same substance, the EC50 (read off the curve), pSTAT5 MFI, murine splenocyte CD8 T cells in assay [5] is 100 ng/mL.
